Consider one substance from US7026443.

For this assay, the target named is HLA-A*6802 (human). Briefly: competition with 125I-labelled standard peptide on purified HLA, gel filtration. In general terms: Size exclusion chromatography separates by hydrodynamic size, large species first.

As to HPV16 E7 86 TLGIVCPI (peptide), the binding affinity ratio (IC50 of standard peptide / IC50 of test peptide) was 0.0047.
